Results: publication PMC10955490

B1: SlGA2ox3 promoter mutated probe (dsDNA)
DNA 1: ATGCCCCCATCTAAAAAACCTTCATATTTC
DNA 2: GAAATATGAAGGTTTTTTAGATGGGGGCAT
B2: SlGA2ox3 promoter GCC-box unlabelled competitor (dsDNA)
DNA 1: ATGCCCCCATCTGCCGCCCCTTCATATTTC
DNA 2: GAAATATGAAGGGGCGGCAGATGGGGGCAT
B3: SlGA2ox3 promoter GCC-box probe (dsDNA)
DNA 1: B2 DNA 1
DNA 2: B2 DNA 2

Key:
SlERF36 [1] = target: T1, SlERF36 (Solanum lycopersicum (tomato), UniProt A0A3Q7IBC2 1-221); test: EMSA
SlERF36 [2] = target: T1, SlERF36; test: competition

Binder	binding result (SlERF36 [1])	binding result (SlERF36 [2])
B1	no binding	
B2		binds
B3	binds	
